Experimental data reported in PMC11882435, “Thermodynamic modeling of RsmA - mRNA interactions capture novel direct binding across the Pseudomonas aeruginosa transcriptome”.

B1: rsaL BS1 mutant (ssRNA)
RNA: GGGAUAAUAAACGUCCGAAAAGAUCAGAGCAAUGGCUUCACACGAGAGAACACAGCCCCAAAACAUGGCCUUCCGGGCAAAGGCCACCCGCACCGCCCGCACUGAAAGCCAGGAAACUUUCUGGAGCCGCU
B2: rsaL BS2 mutant (ssRNA)
RNA: GGGAUAAUAAACGUCCGAAAAGAUCAGAGCAAUGGCUUCACACGAGAGAACACAGCCCCAAAACAUGGCCUUCCGGGCAAAGGCCACCCGCACCGCCCGACGGGAAAGCCAUACAACUUUCUGGAGCCGCU
B3: mvaT BS1 mutant (ssRNA)
RNA: GGGAUAAUACUUACAUGCCCGCCACCGCCACUCAGCACAGACAAGGUACCUGACAUGUCCCUGAUCAACGAAUAUCGCGCCCACACAGAAGCCAUCAAGGAACUUCAGGAGCGCCUGAAGUCCCUGGAACAAGACGACAAACUGAAAAAAGAAC
B4: mvaT BS3 mutant (ssRNA)
RNA: GGGAUAAUACUUACAUGCCCGCCACCGCCACUCAGCACAGACAAGGUACCUGACAUGUCCCUGAUCAACGAAUAUCGCGCCACGGAAGAAGCCAUCAAGGAACUUCAGGAGCGCCUGAAGUCCCUCUGACAAGACGACAAACUGAAAAAAGAAC
B5: mvaT BS2 mutant (ssRNA)
RNA: GGGAUAAUACUUACAUGCCCGCCACCGCCACUCAGCACAGACAAGGUACCUGACAUGUCCCUGAUCAACGAAUAUCGCGCCACGGAAGAAGCCAUCCAAUUACUUCAGGAGCGCCUGAAGUCCCUGGAACAAGACGACAAACUGAAAAAAGAAC

These binders were tested against RsmA (Pseudomonas aeruginosa, UniProt O69078 1-61) (assay: filter binding; affinity unchanged vs WT; Filter binding: 10 mM Tris-HCl pH 7.5, 100 mM KCl, 10 mM MgCl2, 10 mM DTT, 10 ug/mL heparin, RNase inhibitor, 0.5 nM RNA, 37 C 30 min; Hill coefficient 2). Settings: protein: recombinant; expressed in E. coli BL21; chain copies: 2; label: 5'-32P.
Sequence of RsmA (O69078 whole entry): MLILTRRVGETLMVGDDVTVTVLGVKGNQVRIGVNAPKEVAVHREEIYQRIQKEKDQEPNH

Binder | binding result
B1 | binds
B2 | binds
B3 | binds
B4 | binds
B5 | binds
